Paper PMC3229523, “Identification of Lactoferricin B Intracellular Targets Using an Escherichia coli Proteome Chip” (PLoS ONE, 2011)
Ends that are not written are not given here. * marks the point of attachment. Biotin = O=C1N[C@H]2[C@H](CS[C@H]2CCCCC(=O)*)N1

How the values were obtained:
Assay in all cases: peptide or protein array; E. coli proteome chip: purified His-tagged proteins printed in duplicate on Fullmoon slides, blocked with 1% BSA; 10 nM N-terminal biotinylated LfcinB with 1% BSA, room temperature, 1 h; detected with DyLight 649-labeled streptavidin, ratio to DyLight 549-labeled anti-His antibody; ProCAT normalisation, local cut-off; triplicate chips
Conditions in all cases: both partners purified
[1] = molecular target: T1, YqcA (E. coli K-12, UniProt P65367 1-149)
T1 construct: YqcA, E. coli K-12
T1 sequence (looked up): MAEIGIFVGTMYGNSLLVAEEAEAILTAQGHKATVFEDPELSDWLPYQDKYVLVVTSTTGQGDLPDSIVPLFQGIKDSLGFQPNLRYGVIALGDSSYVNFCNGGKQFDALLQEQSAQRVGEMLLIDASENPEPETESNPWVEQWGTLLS

[2] = molecular target: T2, YjfW (E. coli K-12, UniProt P39305 1-284)
T2 construct: YjfW, E. coli K-12
T2 sequence (looked up): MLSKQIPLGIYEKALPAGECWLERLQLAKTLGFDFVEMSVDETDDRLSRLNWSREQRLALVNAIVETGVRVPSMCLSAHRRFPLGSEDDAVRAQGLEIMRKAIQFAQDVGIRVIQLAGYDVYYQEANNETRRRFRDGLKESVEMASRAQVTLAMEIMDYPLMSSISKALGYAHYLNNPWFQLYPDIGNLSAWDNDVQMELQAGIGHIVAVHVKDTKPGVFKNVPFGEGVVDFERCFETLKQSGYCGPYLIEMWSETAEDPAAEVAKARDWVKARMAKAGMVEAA

[3] = molecular target: T3, YjbM (E. coli K-12, UniProt P32694 1-235)
T3 construct: YjbM, E. coli K-12
T3 sequence (looked up): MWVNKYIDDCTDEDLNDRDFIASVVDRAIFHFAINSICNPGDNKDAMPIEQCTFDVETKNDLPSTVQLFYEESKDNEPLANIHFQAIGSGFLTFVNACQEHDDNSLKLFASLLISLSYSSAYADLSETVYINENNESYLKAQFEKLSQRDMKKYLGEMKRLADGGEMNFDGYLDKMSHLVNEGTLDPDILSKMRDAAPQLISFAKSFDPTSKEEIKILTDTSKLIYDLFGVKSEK

[4] = molecular target: T4, YhiF (E. coli K-12, UniProt P37195 1-176)
T4 construct: YhiF, E. coli K-12
T4 sequence (looked up): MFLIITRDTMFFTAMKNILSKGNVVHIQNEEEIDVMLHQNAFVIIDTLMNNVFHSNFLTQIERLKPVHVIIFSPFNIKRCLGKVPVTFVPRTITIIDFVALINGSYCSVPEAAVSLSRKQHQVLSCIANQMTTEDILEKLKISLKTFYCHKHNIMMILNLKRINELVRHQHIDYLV

[5] = molecular target: T5, AdiY (E. coli K-12, UniProt P33234 1-253)
T5 construct: AdiY, E. coli K-12
T5 sequence (looked up): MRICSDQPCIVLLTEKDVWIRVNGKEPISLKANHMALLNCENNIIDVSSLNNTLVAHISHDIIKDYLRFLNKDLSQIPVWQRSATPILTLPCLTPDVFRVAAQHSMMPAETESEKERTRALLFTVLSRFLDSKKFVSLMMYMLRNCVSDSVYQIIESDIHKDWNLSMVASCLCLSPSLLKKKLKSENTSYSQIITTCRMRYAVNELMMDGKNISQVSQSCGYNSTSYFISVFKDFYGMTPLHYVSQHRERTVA

[6] = molecular target: T6, YhaJ (E. coli K-12, UniProt P67660 1-298)
T6 construct: YhaJ, E. coli K-12
T6 sequence (looked up): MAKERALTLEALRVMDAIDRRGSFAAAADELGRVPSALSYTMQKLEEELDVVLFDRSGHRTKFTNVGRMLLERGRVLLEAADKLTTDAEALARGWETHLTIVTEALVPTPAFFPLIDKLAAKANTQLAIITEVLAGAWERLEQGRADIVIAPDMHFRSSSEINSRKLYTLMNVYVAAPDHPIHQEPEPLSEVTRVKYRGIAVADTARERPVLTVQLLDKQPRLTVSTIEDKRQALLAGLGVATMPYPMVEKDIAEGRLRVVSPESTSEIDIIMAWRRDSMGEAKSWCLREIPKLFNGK

Measured: binding result

B1: N-terminal biotinylated Lactoferricin B (peptide, UniProt P24627 36-60, looked up)
peptide: Biotin-FKCRRWQWRMKKLGAPSITCVRRAF
modifications: ends and bridges not checked
notes: lactoferricin B (LfcinB), cationic antimicrobial peptide of 25 amino acids; also called biotinylated LfcinB; biotin-labeled LfcinB; source: bought: Kelowna Inc
binds: [1] | [2] | [3] | [4] | [5] | [6]
